For assay [1], the target named is HLA-G recombinant protein (Origene, CAT #: TP305216) (human) (UniProt P17693). Description: competitive ELISA; competitor biotinylated LILRB1 on HLA-G recombinant protein.
Assay [2] has the same target. Description: competitive ELISA; competitor biotinylated KIR2DL4 on HLA-G recombinant protein.
The target is the same in assay [3]. Description: competitive ELISA on HLA-G recombinant protein; blocked ligand: biotinylated LILRB1. (In general: In an ELISA, binding on a coated surface is turned into a signal by an enzyme label.)
Assay [4] has the same target. Description: competitive ELISA on HLA-G recombinant protein; blocked ligand: biotinylated KIR2DL4.
For assay [5], the target named is T1, PD-L1 recombinant protein (Sino Biological, CAT #: 10084-H05H) (UniProt Q9NZQ7 19-239).
T1 construct: Bought protein; also called programmed death-ligand 1
Description: SPR. How it is done: The kinetic analysis of the PD-L1 nanobodies of the present disclosure and the binding affinity analysis of the PD-L1 recombinant protein (Sino Biological, CAT #: 10084-H05H) are performed by SPR analysis.
For orientation: Surface plasmon resonance follows binding to a sensor surface in real time, without labels.

Assay [6] has as its target T2, PD-L1 on PD-L1 aAPC/CHO-K1 cells (PD-1/PD-L1 Blockade Bioassay Kit, Promega) (UniProt Q9NZQ7 19-290, limits assumed). In words: cell-based or functional assay.
Assay [7] addresses T2, PD-L1 on PD-L1 aAPC/CHO-K1 cells …. In words: cell-based or functional assay. This is another data set of the same source.

From patent US20230038878A1 (EVER SUPREME BIO TECHNOLOGY, published 2023) come the findings set out here.

Some results are limits rather than exact numbers.

T1 sequence (Q9NZQ7 19-239 limits assumed): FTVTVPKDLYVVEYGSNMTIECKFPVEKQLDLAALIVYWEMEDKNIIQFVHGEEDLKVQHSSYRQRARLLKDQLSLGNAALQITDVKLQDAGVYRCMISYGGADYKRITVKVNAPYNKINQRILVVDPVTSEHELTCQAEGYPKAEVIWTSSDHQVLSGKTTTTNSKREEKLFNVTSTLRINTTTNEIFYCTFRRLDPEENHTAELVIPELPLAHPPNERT
T2 sequence (Q9NZQ7 19-290 limits assumed): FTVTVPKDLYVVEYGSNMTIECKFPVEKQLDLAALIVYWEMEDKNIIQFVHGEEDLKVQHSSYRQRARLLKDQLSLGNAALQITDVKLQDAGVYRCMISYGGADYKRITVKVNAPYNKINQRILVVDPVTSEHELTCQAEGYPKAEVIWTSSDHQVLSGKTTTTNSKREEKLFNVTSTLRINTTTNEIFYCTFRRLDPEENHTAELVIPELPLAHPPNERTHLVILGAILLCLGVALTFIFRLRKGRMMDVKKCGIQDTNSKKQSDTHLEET

As usually defined, the IC50 is the concentration that inhibits the measured activity by half. As to “HLA-G monoclonal antibody (87G, ThermoFisher)”, the IC50 in assay [1] is over 1000 nM; in assay [2] it was 104 nM. Moreover, the figures for the IC50 (read off the curve) in assay [3] and in assay [4] were 7000 nM and 100 nM, respectively.

B1: PD-L1 Nb #3 (VHH)
VHH: EVQLVESGGGLVQPGGSLRLSCVASGFTFSSIGMSWVRQAPGKGLEWVSGLNPVGSHTGYADSVKGRFTISRDNAKNTLHLQLNSLKTEDTAMYYCQRGYTCSGDLCERGQGTQVTVSS
notes: Prepared as a free nanobody; also called PD-L1 nanobody
By Kd is commonly meant the concentration at which binding is half-saturated. As a reminder, the koff is the first-order rate constant of dissociation. The term kon denotes the rate constant with which the complex forms. For B1, in assay [5], the Kd was 0.86 nM, the koff came to 0.00521 s⁻¹ and the kon came out at 6.04e+06 M⁻¹ s⁻¹. The “IC50 for the PD-1 blocking activity (PD-1/PD-L1 Blockade Bioassay, luminescence)” value in assay [6] is about 37.7 nM. The “IC50 (read off the curve); PD-1/PD-L1 Blockade Bioassay (Promega), bioluminescence (RLU), which rises with the concentration” value in assay [7] is about 20 nM.

B2: PD-L1 Nb #15 (VHH)
VHH: HVQLVESGGGLVQPGGSLRLSCAASGFTFSSKAMSWVRQAPGKGLDWVSTINSGGGNTYYSDSVKGRFTISRDNAKNTLYLQLNSLKTEDTAMYYCSRCSDIYCGGQYTYRGQGTLVTVSS
notes: as for B1
Turning to B2, in assay [5], the Kd came to 0.91 nM, the koff came out at 0.000936 s⁻¹ and the kon was determined as 1.03e+06 M⁻¹ s⁻¹. Moreover, the “IC50 for the PD-1 blocking activity (PD-1/PD-L1 Blockade Bioassay, luminescence)” value in assay [6] is about 0.48 nM.
